Experimental data reported in patent publication US20140234868A1, “USE FOR GLYCOLIPOPROTEIN GINTONIN, ISOLATED AND IDENTIFIED FROM GINSENG, AS A NATURAL MEDICAL-PLANT DERIVED LIGAND” (KONKUK UNIVERSITY INDUSTRIAL COOPERATION CORP., priority 2011, published 2014).

T1: LPA3 receptor (Homo sapiens, UniProt Q9UBY5)
T1 construct: host or cells: B103 rat neuroblastoma cells
T1 sequence (Q9UBY5 1-353): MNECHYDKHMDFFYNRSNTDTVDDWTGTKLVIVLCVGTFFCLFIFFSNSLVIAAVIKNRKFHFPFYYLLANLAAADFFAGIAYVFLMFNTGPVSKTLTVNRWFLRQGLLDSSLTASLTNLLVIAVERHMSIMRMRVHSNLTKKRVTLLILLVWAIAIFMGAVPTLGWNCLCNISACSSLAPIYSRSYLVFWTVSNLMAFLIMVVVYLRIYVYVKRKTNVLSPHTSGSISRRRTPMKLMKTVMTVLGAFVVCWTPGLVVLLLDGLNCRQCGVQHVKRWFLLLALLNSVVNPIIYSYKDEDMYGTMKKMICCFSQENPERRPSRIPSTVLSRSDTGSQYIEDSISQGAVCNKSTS

B1: gintonin: ginseng-derived glycolipoprotein; structural protein of ginseng major latex-like protein (MLP151) and ribonuclease-like storage proteins; crude gintonin used in tests (protein)
chain 1: MGLTGKLICQTGIKSDGDVFHELFGTRPHHVPNITPANIQGCDLHEGEFGKVGSVVIWNYSIDGNAMIAKEEIVAIDEEDKSVTFKVVEGHLFEEFKSIVFSVHVDTKGEDNLVTWSIDYEKLNESVKDPTSYLDFLLSVTRDIEAHHLPK
chain 2: RSDYPWAMFALRLQWPAGFCEVNNACDTKSLLNTFTIHGLYPYNAKGTPALYCDGTAFDVNSVSDFLAEMHLAWPSHETNTEDIQFWEHEWKKHGRCSEALLKQTDYFRTALAFRKAFDIVGLLNQEGIYPNNDLYRPKMIKEAIKKHLNAVPEIDFTKNENSEYVLTDINVCVNQQATRFVDCPTDDATDDYRLKFVRLPSKMKFADPRTNSII

Assays:
[1] = system: BKCaK+ channels; experiment: BKCa K+ channel activity in Xenopus oocytes, two-electrode voltage clamp; format: cell-based
Summary of the method: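 Two-electrode voltage clamp was performed at room temperature on stage V-VI Xenopus oocytes. Oocytes were perfused with Cl−/Ca2+-free solution, pH 7.4, containing 500 μM anthracene-9-carboxylic acid. Outward currents were recorded on 400 ms steps from −80 mV holding to +40 mV.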

[2] = target: T1, LPA3 receptor; experiment: Intracellular free Ca2+ (Fura-2AM) in LPA3-expressing B103 cells; format: cell-based
Description: LPA family receptors are endogenous to cells of most organs. B103 rat neuroblastoma cells, known as LPA receptor-null cells (Valentine et al., Biochim Biophys Acta 1780. 597-605) were transiently transfected with a plasmid (vector) carrying one of genes coding for LPA1(edg-2), LPA2(edg-4), LPA3(edg-7), LPA4, LPA5 and LPA6 receptors or a plasmid carrying none of them (empty vector). Two or three days after transfection, the cells are suspended, and made permeable. Then, the permeable cells are treated with Fura-2AM, a fluorescent dye binding to calcium, and then with gintonin, followed by spectrofluorephotometry to examine whether gintonin induces an increase in intracellular free Ca^2+ level.
(1) preparing large quantities of plasmids carrying respective LPA family receptor genes and an empty plasmid carrying none of them through amplification and purification (maxi-preparation); (2) verifying the expression of LPA receptors wherein B103 cells are transfected with haematoglutin (HA)-tagged LPA receptors, and then subjected to Western blotting analysis using an anti-HA primary antibody and a horseradish peroxidase (HRP)-conjugated secondary antibody to develop a color; (3) verifying the expression of LPA receptors wherein B1-3 cells are transfected with haematoglutin (HA)-tagged LPA receptors, and then subjected to confocal laser microscopy using an anti-HA antibody and a fluorescence dye Cy3-conjugated secondary antibody; (4) transfecting the empty plasmid and each of the plasmids carrying LPA family receptor genes into B103 cells; (5) treating the transfected B103 cells with trypsin (0.05% trypsin with EDTA, w/v) 2-3 days post-transfection, to give a cell suspension; (6) culturing the suspended B103 cells with Fura-2AM (2.5 μM); and (7) treating the suspended B103 cells with gintonin and quantifying a change in intracellular free Ca^2+ level in a cuvette by spectrofluorephotometry using Fura-2AM.
Human LPA (lysophosphatidic acid) receptor subtypes, orphan GPCRs (G protein coupled receptors) and plasmids carrying GPCRs were purchased from Missouri S&T resource Center (www.cDNA.org).
The transient transfection of LPA receptor subtypes was carried out with the aid of Lipofectamine 2000 of Invitrogen. A plasmid (10.8 μg) carrying each LPA receptor (LPA1, LPA2, LPA3, LPA4, LPA5, and LPA6) was transfected into B103 cells grown in 10-cm dishes, and incubated for 2 days prior for use in experiments.
In this Example, gintonin, or ginsenoside Rb1 or Rg1 was examined for its ability to induce a transient increase of [Ca^2+]i in Fura-2AM-loaded B103 cells which were transfected with LPA receptors and in Fura-2AM-loaded B103 cells which were not transfected with LPA receptors. To this end, B103 cells (2˜4×10^6/ml) pre-treated with Fura-2AM were suspended in a 1.5 mM Ca^2+-containing buffer or Ca^2+-free buffer, and incubated 37° C. for 30 min, followed by analyzing intracellular calcium levels in the B103 cells in the presence of gintonin or ginsenosides.
Briefly, B103 cells (1˜2×10^6/ml) were mixed with 2.5 μM Fura 2-AM in a Ca^2+ buffer (pH 7.4) containing NaCl 120 mM, KCl 5 mM, MgCl2 1 mM, CaCl2 1.5 mM, glucose 10 mM, and HEPES 25 mM, and a Ca^2+ free buffer (pH 7.4) containing NaCl 120 mM, KCl 5 mM, MgCl2 1 mM, EGTA 0.2 mM, glucose 10 mM, and HEPES 25 mM at 37° C. for 30 min in water bath with shaking according to the Jørgensen method, and washed three times with Ca^2+ buffer or Ca^2+ free buffer to remove excess Fura-2AM.
[Ca^2+]i was estimated in Fura 2AM-loaded cells in suspension using an RF-5300PC intracellular ion measurement system (Shimadzu Corporation, Japan).
Briefly, Fura 2-AM loaded cells were diluted with an experimental medium to a final density of 2˜4×10^6 cells/mL, and transferred to polystyrene cuvettes (Elkay Ultra-VU). The cells were stirred using Teflon-coated magnets, and the cuvette housing was thermostatically controlled at 37° C. The excitation wavelengths were alternated between 340 and 380 nm under computer control. […]

| Molecule | effect on gintonin-induced BKCaK+ channel activation ([1]; Kil6425 10 μM, U73122, U73343 1 μM, 2-APB 100 μM, BAPTA-AM, PMA 1 μM) | effect on gintonin-induced intracellular calcium increase ([2]; LPA3-expressing cells treated with antagonist) | ED50, BKCaK+ channel activation ([1]; BKCaK+ channels expressed in Xenopus oocytes) [µg/mL] | BKCa channel activity on repetitive treatment (desensitization) ([1]; repetitive treatments, data not shown) | transient increase of [Ca2+]i when extracellular Ca2+ was depleted ([2]; Ca2+-free buffer containing 0.2 mM EGTA, LPA3-expressing cells) | EC50 ([2]; LPA3 receptor, B103 cells, read-out: EC50, LPA receptor-mediated intracellular calcium increase) [nM] | increase in intracellular calcium level ([2]; gintonin 1 μg/ml, LPA3-expressing B103 cells) [µM] | increase of intracellular calcium level in co-existence with ginsenosides ([2]; gintonin in the presence of ginsenoside Rb1 or Rg1) |
| --- | --- | --- | --- | --- | --- | --- | --- | --- |
| Cc1noc(-c2ccc(CSCCC(=O)O)cc2)c1NC(=O)OC(C)c1ccccc1Cl (centres unmarked) [Kil6425] | reduced the gintonin-induced activation of BKCaK^+ channels | did not increase in intracellular calcium level even in the presence of gintonin |  |  |  |  |  |  |
| B1 |  |  | 0.71 ± 0.08 | Repetitive treatments of gintonin reduced BKa channel activity | at a greatly lowered level | 0.12 ± 0.01 | 206.5 ± 11.2 | induce an increase in intracellular calcium level by activating LPA receptors in spite of co-existence with the ginsenosides |
